Experimental data taken from patent US6562613.

Tested on: series of eight synthetic peptides with sequences found in and around the C-proteinase cleavage sites of -Ala-Asp- and -Gly-Asp- in the four pro-alpha chains of types I, II and III procollagen

C-proteinase (enzyme used on the synthetic peptide substrates; source not stated)
cleavage of synthetic peptides, HPLC followed by laser desorption mass spectrometry: four of the eight propeptides were specifically and completely cleaved by the enzyme
